From the supplement of paper PMC10567573

B1: TEKT4 (parent)
chain: LREKLLEAEQSLRNLEDIHMSLEK

Variants of: B1
Assay: protein stability index of a GFP-peptide fusion (GPS, HEK-293T) (PSI 1-6); higher = more stable
Conditions: c terminus: a fixed tail appended
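Note: lentivirally expressed fusions sorted by FACS into six bins by GFP to DsRed ratio, PSI derived from sequencing read proportions per bin multiplied by bin number.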

In order of falling protein stability index:
1. LREKQLEAEQSLRNLEDIHMSLEK  5.21
2. LREKLPEAEQSLRNLEDIHMSLEK  5.19
3. DREKLLEAEQSLRNLEDIHMSLEK  5.15
4. LREKNLEAEQSLRNLEDIHMSLEK  5.13
5. EREKLLEAEQSLRNLEDIHMSLEK  5.12
6. LREKDLEAEQSLRNLEDIHMSLEK  5.1
7. LREKELEAEQSLRNLEDIHMSLEK  5.05
8. LREKKLEAEQSLRNLEDIHMSLEK  4.93
9. LREKGLEAEQSLRNLEDIHMSLEK  4.83
10. SREKLLEAEQSLRNLEDIHMSLEK  4.82
11. LREKPLEAEQSLRNLEDIHMSLEK  4.75
12. LREKSLEAEQSLRNLEDIHMSLEK  4.68
13. QREKLLEAEQSLRNLEDIHMSLEK  4.67
14. LREKTLEAEQSLRNLEDIHMSLEK  4.67
15. NREKLLEAEQSLRNLEDIHMSLEK  4.65
16. LREKLLENEQSLRNLEDIHMSLEK  4.59
17. LREKLLEPEQSLRNLEDIHMSLEK  4.59
18. LREKRLEAEQSLRNLEDIHMSLEK  4.49
19. LREKALEAEQSLRNLEDIHMSLEK  4.49
20. GREKLLEAEQSLRNLEDIHMSLEK  4.38
21. KREKLLEAEQSLRNLEDIHMSLEK  4.27
22. TREKLLEAEQSLRNLEDIHMSLEK  4.24
23. LREKLSEAEQSLRNLEDIHMSLEK  4.23
24. PREKLLEAEQSLRNLEDIHMSLEK  4.12
25. LREKHLEAEQSLRNLEDIHMSLEK  4.08
26. LREKWLEAEQSLRNLEDIHMSLEK  4.04
27. LREDLLEAEQSLRNLEDIHMSLEK  4.01
28. LREKLLEKEQSLRNLEDIHMSLEK  4.01
29. LREKLLEEEQSLRNLEDIHMSLEK  3.99
30. HREKLLEAEQSLRNLEDIHMSLEK  3.92
31. LREKLLEREQSLRNLEDIHMSLEK  3.92
32. LRETLLEAEQSLRNLEDIHMSLEK  3.9
33. LREKYLEAEQSLRNLEDIHMSLEK  3.86
34. AREKLLEAEQSLRNLEDIHMSLEK  3.67
35. LREKLLEHEQSLRNLEDIHMSLEK  3.67
36. LREKLLEYEQSLRNLEDIHMSLEK  3.58
37. LREKLDEAEQSLRNLEDIHMSLEK  3.54
38. LREPLLEAEQSLRNLEDIHMSLEK  3.54
39. RREKLLEAEQSLRNLEDIHMSLEK  3.52
40. LREGLLEAEQSLRNLEDIHMSLEK  3.45
41. LREKLKEAEQSLRNLEDIHMSLEK  3.31
42. LREKLHEAEQSLRNLEDIHMSLEK  3.27
43. LRENLLEAEQSLRNLEDIHMSLEK  3.27
44. LREKFLEAEQSLRNLEDIHMSLEK  3.27
45. LREKMLEAEQSLRNLEDIHMSLEK  3.2
46. LREELLEAEQSLRNLEDIHMSLEK  3.17
47. MREKLLEAEQSLRNLEDIHMSLEK  3.12
48. LREKLAEAEQSLRNLEDIHMSLEK  3.11
49. CREKLLEAEQSLRNLEDIHMSLEK  3.07
50. LREHLLEAEQSLRNLEDIHMSLEK  3.01
51. LREKLLESEQSLRNLEDIHMSLEK  3
52. LREKLTEAEQSLRNLEDIHMSLEK  2.94
53. LREKLCEAEQSLRNLEDIHMSLEK  2.92
54. LREKLQEAEQSLRNLEDIHMSLEK  2.91
55. LREKLNEAEQSLRNLEDIHMSLEK  2.89
56. LRERLLEAEQSLRNLEDIHMSLEK  2.88
57. LREKLREAEQSLRNLEDIHMSLEK  2.86
58. LREKLLEDEQSLRNLEDIHMSLEK  2.86
59. LREKLEEAEQSLRNLEDIHMSLEK  2.84
60. LREKLMEAEQSLRNLEDIHMSLEK  2.83
61. LRQKLLEAEQSLRNLEDIHMSLEK  2.82
62. LREKLLEVEQSLRNLEDIHMSLEK  2.72
63. LREKLLEQEQSLRNLEDIHMSLEK  2.72
64. LREKILEAEQSLRNLEDIHMSLEK  2.72
65. LREKVLEAEQSLRNLEDIHMSLEK  2.66
66. LREKLVEAEQSLRNLEDIHMSLEK  2.65
67. LREKLGEAEQSLRNLEDIHMSLEK  2.65
68. LRESLLEAEQSLRNLEDIHMSLEK  2.63
69. LREKLYEAEQSLRNLEDIHMSLEK  2.61
70. YREKLLEAEQSLRNLEDIHMSLEK  2.61
71. LREKLLETEQSLRNLEDIHMSLEK  2.61
72. LRECLLEAEQSLRNLEDIHMSLEK  2.54
73. LREKLLEFEQSLRNLEDIHMSLEK  2.52
74. LREVLLEAEQSLRNLEDIHMSLEK  2.51
75. LREKCLEAEQSLRNLEDIHMSLEK  2.44
76. LREILLEAEQSLRNLEDIHMSLEK  2.36
77. LREKLFEAEQSLRNLEDIHMSLEK  2.34
78. LREYLLEAEQSLRNLEDIHMSLEK  2.33
79. LREKLWEAEQSLRNLEDIHMSLEK  2.23
80. LREALLEAEQSLRNLEDIHMSLEK  2.21
81. LREKLLEGEQSLRNLEDIHMSLEK  2.2
82. LREQLLEAEQSLRNLEDIHMSLEK  2.17
83. VREKLLEAEQSLRNLEDIHMSLEK  1.98
84. WREKLLEAEQSLRNLEDIHMSLEK  1.92
85. LREKLIEAEQSLRNLEDIHMSLEK  1.86
86. IREKLLEAEQSLRNLEDIHMSLEK  1.82
87. LREKLLEWEQSLRNLEDIHMSLEK  1.8
88. LREMLLEAEQSLRNLEDIHMSLEK  1.76
89. LREWLLEAEQSLRNLEDIHMSLEK  1.74
90. FREKLLEAEQSLRNLEDIHMSLEK  1.74
91. LREKLLECEQSLRNLEDIHMSLEK  1.64
92. LREKLLELEQSLRNLEDIHMSLEK  1.63
93. LREKLLEIEQSLRNLEDIHMSLEK  1.48
94. LREFLLEAEQSLRNLEDIHMSLEK  1.43
